# Data as given in paper PMC12416549 (2024).
# T1: TNFR1 (Homo sapiens, UniProt P19438)
# T1 chain: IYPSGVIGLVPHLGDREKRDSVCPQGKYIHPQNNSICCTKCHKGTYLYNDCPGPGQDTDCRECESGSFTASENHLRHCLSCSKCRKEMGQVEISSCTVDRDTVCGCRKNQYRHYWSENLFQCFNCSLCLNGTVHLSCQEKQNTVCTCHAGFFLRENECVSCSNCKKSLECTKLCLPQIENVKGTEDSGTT
# Target: T1, TNFR1
# Assay: yeast display SC50
row,Binder,apparent Kd (screen) [pM]
1,A88I (designed binder) MTLQELLREEALRRAEAEAFRYALELLAEKFPEQKEYLLDLAEEIESQIRSLSGVDVEDVRKFLDKEWAWVKELLAEHPAELAEVEAIRAARLAELRAEVEAKVAA,653
2,K30N (designed binder) MTLQELLREEALRRAEAEAFRYALELLAENFPEQKEYLLDLAEEIESQIRSLSGVDVEDVRKFLDKEWAWVKELLAEHPAELAEVEAARAARLAELRAEVEAKVAA,539
3,L26C (designed binder) MTLQELLREEALRRAEAEAFRYALECLAEKFPEQKEYLLDLAEEIESQIRSLSGVDVEDVRKFLDKEWAWVKELLAEHPAELAEVEAARAARLAELRAEVEAKVAA,490
4,E46R (designed binder) MTLQELLREEALRRAEAEAFRYALELLAEKFPEQKEYLLDLAEEIRSQIRSLSGVDVEDVRKFLDKEWAWVKELLAEHPAELAEVEAARAARLAELRAEVEAKVAA,718
5,E84C (designed binder) MTLQELLREEALRRAEAEAFRYALELLAEKFPEQKEYLLDLAEEIESQIRSLSGVDVEDVRKFLDKEWAWVKELLAEHPAELACVEAARAARLAELRAEVEAKVAA,539
6,Q48C (designed binder) MTLQELLREEALRRAEAEAFRYALELLAEKFPEQKEYLLDLAEEIESCIRSLSGVDVEDVRKFLDKEWAWVKELLAEHPAELAEVEAARAARLAELRAEVEAKVAA,956

# Further lines, results first:
row,apparent Kd (screen) [pM],Binder
1,405,E33T (designed binder) MTLQELLREEALRRAEAEAFRYALELLAEKFPTQKEYLLDLAEEIESQIRSLSGVDVEDVRKFLDKEWAWVKELLAEHPAELAEVEAARAARLAELRAEVEAKVAA
2,446,L27F (designed binder) MTLQELLREEALRRAEAEAFRYALELFAEKFPEQKEYLLDLAEEIESQIRSLSGVDVEDVRKFLDKEWAWVKELLAEHPAELAEVEAARAARLAELRAEVEAKVAA
3,653,E73F (designed binder) MTLQELLREEALRRAEAEAFRYALELLAEKFPEQKEYLLDLAEEIESQIRSLSGVDVEDVRKFLDKEWAWVKFLLAEHPAELAEVEAARAARLAELRAEVEAKVAA
4,653,E16Q (designed binder) MTLQELLREEALRRAQAEAFRYALELLAEKFPEQKEYLLDLAEEIESQIRSLSGVDVEDVRKFLDKEWAWVKELLAEHPAELAEVEAARAARLAELRAEVEAKVAA
5,653,A91Y (designed binder) MTLQELLREEALRRAEAEAFRYALELLAEKFPEQKEYLLDLAEEIESQIRSLSGVDVEDVRKFLDKEWAWVKELLAEHPAELAEVEAARAYRLAELRAEVEAKVAA
6,490,V100Y (designed binder) MTLQELLREEALRRAEAEAFRYALELLAEKFPEQKEYLLDLAEEIESQIRSLSGVDVEDVRKFLDKEWAWVKELLAEHPAELAEVEAARAARLAELRAEYEAKVAA
7,490,E25C (designed binder) MTLQELLREEALRRAEAEAFRYALCLLAEKFPEQKEYLLDLAEEIESQIRSLSGVDVEDVRKFLDKEWAWVKELLAEHPAELAEVEAARAARLAELRAEVEAKVAA
8,1270,E10F (designed binder) MTLQELLREFALRRAEAEAFRYALELLAEKFPEQKEYLLDLAEEIESQIRSLSGVDVEDVRKFLDKEWAWVKELLAEHPAELAEVEAARAARLAELRAEVEAKVAA
